In patent US20150299277A1, “AGENT FOR TREATING OR PREVENTING SYSTEMIC INFLAMMATORY RESPONSE SYNDROME” (THE UNIVERSITY OF TOKYO, priority 2012, published 2015):
“Also recorded” adds a separate entry of the source.

How the values were obtained:
histone H1 = target: T1, histone H1 (Homo sapiens, UniProt P07305); assay: ELISA binding assay; conditions: immobilized recombinant histone, absorbance at 450 nm
T1 construct: purchased NEB
Procedure: (§1) Recombinant human histone (NEB) was adjusted to a concentration of 1 μg/mL in TBS, added to a 96 well ELISA plate, and immobilized at 4° C. overnight. The solution was discarded, a blocking buffer (TBS, 0.1% Triton-X100, 1% BSA) was added, and the plate was incubated at room temperature for 2 hr. The plate was washed four times with a wash buffer (TBS, 0.1% Triton-X100), recombinant PTX3 diluted to various concentrations with the blocking buffer was added to each well, and reacted at room temperature for 1 hr. After washing four times with the wash buffer, HRP-labeled antibody diluted with the blocking buffer was added, and reacted at room temperature for 1 hr. After washing four times with the wash buffer, TMB solution was added to carry out a color development reaction for 30 min, and the absorbance at 450 nm was measured. Assay was performed using all the buffers containing 4 mM CaCl2 or 4 mM EDTA.
(§2) The binding level between immobilized each recombinant histone and tag-free recombinant human PTX3 (rhPTX3) was measured by binding assay (ELISA). For the detection, HRP-labeled anti-PTX3 monoclonal antibody (PPZ1228) was used. ELISA was performed with duplicate wells for each point, and means and standard deviations were calculated from three independent experiments.
(§3) The binding level between immobilized each recombinant histone and a tagged human PTX3 fragment was measured by binding assay (ELISA). For detection, HRP-labeled anti-His (6×His) antibody was used. ELISA was performed with duplicate wells for each point, and means and standard deviations were calculated from three independent experiments.

histone H3 = target: T2, histone H3 (Homo sapiens, UniProt P68431); assay: ELISA binding assay; conditions: immobilized recombinant histone, absorbance at 450 nm
T2 construct: purchased NEB
Procedure: as §1, §2, §3

each histone [1] = assay: ELISA binding assay; parameters: species or system human; conditions: buffers containing 4 mM CaCl2 or 4 mM EDTA
Procedure: as §1, with “Assay was performed using all the buffers containing 4 mM CaCl2 or 4 mM EDTA.” left out
The binding level between immobilized each recombinant histone and tag-free recombinant human PTX3 (rhPTX3) was measured by binding assay (ELISA). […] ELISA was performed with duplicate wells for each point, and means and standard deviations were calculated from three independent experiments.
The binding level between immobilized each recombinant histone and a tagged human PTX3 fragment was measured by binding assay (ELISA). […] ELISA was performed with duplicate wells for each point, and means and standard deviations were calculated from three independent experiments.

each histone [2] = assay: BIAcore / surface plasmon resonance (SPR) measurement; assay type: binding, human; conditions: immobilized recombinant histone
Procedure: For the measurement, BIAcore 3000 or T200 (GE Healthcare) was used. Recombinant human histone was immobilized on CM5 sensor chip by an amine coupling kit (GE Healthcare). The reaction with recombinant PTX3 was performed using a buffer (150 mM NaCl, 20 mM HEPES, 0.005% surfactant P20 (pH 7.4)) at a flow rate of 20 μl/min. Measurement was performed using the buffer containing […]. The sensor chip was regenerated in IM sodium acetate (10 μL, pH 7.2) and 10 mM NaOH (10 μL).
The binding of immobilized each recombinant histone, and Myc- and His-tagged human PTX3 fragment was measured by surface plasmon resonance (SPR). The highest concentration of each PTX3 was as follows. full-length PTX3: 1 nM, N-terminal domain of PTX3: 5 nM, C-terminal domain of PTX3: 50 nM. The assay buffer contained 4 mM CaCl2 (Ca^2+) or 4 mM EDTA/EGTA. The affinity measured by SPR was calculated from three experiments.

each histone variant = assay: Aggregation of each histone variant and PTX3 fragment, absorbance at 310 nm; assay type: binding; conditions: histone variant 50 μg/mL, PTX3 fragment 30 μg/mL
Procedure: Each histone variant (50 μg/mL) and each PTX3 fragment (30 μg/mL) were mixed, and the absorbance at the wavelength of 310 nm was measured. Before mixing, samples were dialyzed against 4 mM CaCl2-containing TBS.

[3] = system: Calf Thymus Histones on HUVEC; assay: Cytotoxic assay: suppression of histone cytotoxicity on HUVEC; assay type: cell-based, human; conditions: 100 μg/mL Calf Thymus Histones, 40 μg/mL protein, 1 hr, PI staining, FACS
Procedure: After culturing for 1 hr in a medium concurrently containing 100 μg/mL Calf Thymus Histones and APC (200 nM), PTX3 (40 μg/mL), CRP (40 μg/mL) or SAP (40 μg/mL), the level of toxic activity was measured by FACS.
Normal human umbilical vein endothelial cells (HUVECs) were cultured in EGM2 medium (Clonetics). The cells after culture were washed with PBS, added with Opti-MEM medium containing an product of incubation of activated protein C (APC), PTX3, C reactive protein (CRP) or Serum amyloid P component (SAP) with histone for 1 hr, and the cells were further cultured for 1 hr. Propidium iodide (PI) was added to the medium after culture at a final concentration of 10 μg/mL, and the cells were stained for 10 min. The cells were washed with PBS, detached and analyzed by flow cytometry.
The histone cytotoxicity on HUVEC was evaluated by propidium iodide (PI) staining.
Lastly, capacity of suppressing the cytotoxic activity of histone was confirmed. Since this experiment requires a certain amount of protein and an endotoxin-elimination as treatment, a protein was expressed and purified at a 500 mL culture scale, and subjected to an endotoxin-elimination treatment (FIG. 18). In the case of PTX3 N-terminal domain, about 10 mg was obtained at a 500 mL culture scale, and a loss by the endotoxin-elimination treatment was scarcely observed. […] A capacity of fragment proteins obtained at a 500 mL scale on HUVEC to suppress histone cytotoxicity was studied. […] In consideration of the experiments relating to the binding and aggregation, all fragments were considered to possibly have a certain level of suppressive capacity.

fragment H3-11 on HUVEC = assay: Suppression of cytotoxic activity of histone fragment on HUVEC; assay type: cell-based, human; conditions: fragment 250 μg/mL; full-length PTX3 at 80 μg/mL; HUVEC 1 hr
Procedure: (§4) Then, a suppressive effect of PTX3 on the cytotoxic activity of fragments […], H3-8, H3-11 and H4-9 was evaluated.
(§5) In the same manner as in FIGS. 7B-D, a suppressive effect of the N-terminal domain of PTX3 on the cytotoxic activity of histone H3 and H4 fragments was evaluated.

fragment H3-6 on HUVEC = assay: as above; assay type: cell-based, human; conditions: fragment 250 μg/mL; full-length PTX3 at 80 μg/mL; HUVEC 1 hr
Procedure: as §4, §5

fragment H3-8 on HUVEC = assay: as above; assay type: cell-based, human; conditions: fragment 250 μg/mL; full-length PTX3 at 80 μg/mL; HUVEC 1 hr
Procedure: as §4, §5

fragment H4-9 on HUVEC = assay: as above; assay type: cell-based, human; conditions: fragment 250 μg/mL; full-length PTX3 at 80 μg/mL; HUVEC 1 hr
Procedure: as §4, §5

histone H4 = histone H4 (Homo sapiens, UniProt P62805); assay: ELISA binding assay; parameters: purchased NEB; conditions: immobilized recombinant histone, absorbance at 450 nm
Procedure: as §1, §2, §3

T1 sequence (P07305 whole entry): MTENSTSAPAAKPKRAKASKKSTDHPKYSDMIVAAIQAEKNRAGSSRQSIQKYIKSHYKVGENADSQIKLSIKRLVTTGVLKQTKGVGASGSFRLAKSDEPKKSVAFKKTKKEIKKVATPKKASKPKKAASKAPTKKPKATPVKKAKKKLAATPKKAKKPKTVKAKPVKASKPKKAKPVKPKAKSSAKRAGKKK

| Substance | binding to histone H1 (binding assay) (histone H1) | binding to histone H1 (binding assay) (histone H1; listed as N-terminal domain) | binding to histone H3 (binding assay) (histone H3) | binding to histone H3 (binding assay) (histone H3; listed as N-terminal domain) | influence of calcium ion on binding to each histone (each histone [1]) | affinity for each histone by SPR (each histone [2]) | aggregation with each histone variant, absorbance at 310 nm (each histone variant) | suppression of toxic activity of Calf Thymus Histones on HUVEC [3] | suppressive effect on cytotoxic activity of fragment H3-11 (fragment H3-11 on HUVEC) | suppressive effect on cytotoxic activity of fragment H3-6 (fragment H3-6 on HUVEC) | suppressive effect on cytotoxic activity of fragment H3-8 (fragment H3-8 on HUVEC) | suppressive effect on cytotoxic activity of fragment H4-9 (fragment H4-9 on HUVEC) | binding to histone H4 (binding assay) (histone H4) | binding to histone H4 (binding assay) (histone H4; listed as N-terminal domain) | affinity for each histone by SPR (each histone [2]; listed as PTX3) | suppression of toxic activity of Calf Thymus Histones on HUVEC ([3]; listed as PTX3) |
| --- | --- | --- | --- | --- | --- | --- | --- | --- | --- | --- | --- | --- | --- | --- | --- | --- |
| N-terminal domain of PTX3: N-terminal domain human PTX3 (18-178 amino acids, SEQ ID NO: 3), tagged, expressed in CHO cells or Escherichia coli | equivalent to that of the full-length PTX3 | strong bindability | equivalent to that of the full-length PTX3 | strong bindability | stronger binding was found in the presence of calcium ion | full-length PTX3>N-terminal domain>C-terminal domain | aggregated | suppress toxic activity of histone on HUVEC; also recorded: suppressed | neutralized | neutralized | neutralized | neutralized | equivalent to that of the full-length PTX3 | strong bindability |  |  |
| full-length PTX3: full-length human pentraxin 3 (1-381 amino acids, SEQ ID NO: 2), used tag-free or Myc- and His-tagged | strong binding affinity |  | strong binding affinity |  | stronger binding was found in the presence of calcium ion | full-length PTX3>N-terminal domain>C-terminal domain | aggregated | suppress toxic activity of histone on HUVEC | neutralized | neutralized | neutralized | neutralized | strong binding affinity |  | extremely high | suppresses cytotoxic activity of extracellular histone on HUVEC to the same level as APC |
